Test results: PMC4007430

T1: CCL22 labeled with Alexa Fluor 647, O00626
T1 chain: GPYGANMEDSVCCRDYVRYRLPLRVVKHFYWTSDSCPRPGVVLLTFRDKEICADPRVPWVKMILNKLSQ


How the values were obtained:
[1] = target: T1, CCL22 labeled with Alexa Fluor 647, …; assay: flow cytometry on cells; conditions: chain shown with the change;; parent: est. 47; read off a plot
[2] = target: CCL2 labeled with Alexa Fluor 647, P13500; assay: flow cytometry on cells; conditions: read off a plot
[3] = chain shown with the change;, parent: est. 195

Chain of CCL2 labeled with Alexa Fluor 647, P13500 (P13500 24-99): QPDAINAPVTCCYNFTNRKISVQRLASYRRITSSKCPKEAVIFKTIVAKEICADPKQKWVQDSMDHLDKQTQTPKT

Binder	response [1]	response [2, 3]	other results
HA-ACKR2 (epitope-tagged human ACKR2, wild type), O00590 YYYDY to YYYDF (fourth tyrosine of the motif to F) (protein) MAATASPQPLATEDADSENSSFYYYDFLDEVAFMLCRKDAVVSFGKVFLPVFYSLIFVLGLSGNLLLLMVLLRYVPRRRMVEIYLLNLAISNLLFLVTLPFWGISVAWHWVFGSFLCKMVSTLYTINFYSGIFFISCMSLDKYLEIVHAQPYHRLRTRAKSLLLATIVWAVSLAVSIPDMVFVQTHENPKGVWNCHADFGGHGTIWKLFLRFQQNLLGFLLPLLAMIFFYSRIGCVLVRLRPAGQGRALKIAAALVVAFFVLWFPYNLTLFLHTLLDLQVFGNCEVSQHLDYALQVTESIAFLHCCFSPILYAFSSHRFRQYLKAFLAAVLGWHLAPGTAQASLSSCSESSILTAQEEMTGMNDLGERQSENYPNKEDVGNKSA		180 MFI	
HA-ACKR2 (epitope-tagged human ACKR2, wild type), O00590 YYYDY to YFFDF (second, third and fourth tyrosines of the motif to F) (protein) MAATASPQPLATEDADSENSSFYFFDFLDEVAFMLCRKDAVVSFGKVFLPVFYSLIFVLGLSGNLLLLMVLLRYVPRRRMVEIYLLNLAISNLLFLVTLPFWGISVAWHWVFGSFLCKMVSTLYTINFYSGIFFISCMSLDKYLEIVHAQPYHRLRTRAKSLLLATIVWAVSLAVSIPDMVFVQTHENPKGVWNCHADFGGHGTIWKLFLRFQQNLLGFLLPLLAMIFFYSRIGCVLVRLRPAGQGRALKIAAALVVAFFVLWFPYNLTLFLHTLLDLQVFGNCEVSQHLDYALQVTESIAFLHCCFSPILYAFSSHRFRQYLKAFLAAVLGWHLAPGTAQASLSSCSESSILTAQEEMTGMNDLGERQSENYPNKEDVGNKSA	22 MFI		
HA-ACKR2 (epitope-tagged human ACKR2, wild type), O00590 YYYDY to YFYDY (second tyrosine of the motif to F) (protein) MAATASPQPLATEDADSENSSFYFYDYLDEVAFMLCRKDAVVSFGKVFLPVFYSLIFVLGLSGNLLLLMVLLRYVPRRRMVEIYLLNLAISNLLFLVTLPFWGISVAWHWVFGSFLCKMVSTLYTINFYSGIFFISCMSLDKYLEIVHAQPYHRLRTRAKSLLLATIVWAVSLAVSIPDMVFVQTHENPKGVWNCHADFGGHGTIWKLFLRFQQNLLGFLLPLLAMIFFYSRIGCVLVRLRPAGQGRALKIAAALVVAFFVLWFPYNLTLFLHTLLDLQVFGNCEVSQHLDYALQVTESIAFLHCCFSPILYAFSSHRFRQYLKAFLAAVLGWHLAPGTAQASLSSCSESSILTAQEEMTGMNDLGERQSENYPNKEDVGNKSA	71 MFI		
HA-ACKR2 (epitope-tagged human ACKR2, wild type), O00590 YYYDY to YYFDY (third tyrosine of the motif to F) (protein) MAATASPQPLATEDADSENSSFYYFDYLDEVAFMLCRKDAVVSFGKVFLPVFYSLIFVLGLSGNLLLLMVLLRYVPRRRMVEIYLLNLAISNLLFLVTLPFWGISVAWHWVFGSFLCKMVSTLYTINFYSGIFFISCMSLDKYLEIVHAQPYHRLRTRAKSLLLATIVWAVSLAVSIPDMVFVQTHENPKGVWNCHADFGGHGTIWKLFLRFQQNLLGFLLPLLAMIFFYSRIGCVLVRLRPAGQGRALKIAAALVVAFFVLWFPYNLTLFLHTLLDLQVFGNCEVSQHLDYALQVTESIAFLHCCFSPILYAFSSHRFRQYLKAFLAAVLGWHLAPGTAQASLSSCSESSILTAQEEMTGMNDLGERQSENYPNKEDVGNKSA		180 MFI	
HA-ACKR2 (epitope-tagged human ACKR2, wild type), O00590 YYYDY to FYFDF (first, third and fourth tyrosines of the motif to F) (protein) MAATASPQPLATEDADSENSSFFYFDFLDEVAFMLCRKDAVVSFGKVFLPVFYSLIFVLGLSGNLLLLMVLLRYVPRRRMVEIYLLNLAISNLLFLVTLPFWGISVAWHWVFGSFLCKMVSTLYTINFYSGIFFISCMSLDKYLEIVHAQPYHRLRTRAKSLLLATIVWAVSLAVSIPDMVFVQTHENPKGVWNCHADFGGHGTIWKLFLRFQQNLLGFLLPLLAMIFFYSRIGCVLVRLRPAGQGRALKIAAALVVAFFVLWFPYNLTLFLHTLLDLQVFGNCEVSQHLDYALQVTESIAFLHCCFSPILYAFSSHRFRQYLKAFLAAVLGWHLAPGTAQASLSSCSESSILTAQEEMTGMNDLGERQSENYPNKEDVGNKSA	19 MFI		

More lines, main results first:

response [1]	response [2, 3]	Binder	other results
18 MFI		HA-ACKR2 (epitope-tagged human ACKR2, wild type), O00590 YYYDY to FFYDF (first, second and fourth tyrosines of the motif to F) (protein) MAATASPQPLATEDADSENSSFFFYDFLDEVAFMLCRKDAVVSFGKVFLPVFYSLIFVLGLSGNLLLLMVLLRYVPRRRMVEIYLLNLAISNLLFLVTLPFWGISVAWHWVFGSFLCKMVSTLYTINFYSGIFFISCMSLDKYLEIVHAQPYHRLRTRAKSLLLATIVWAVSLAVSIPDMVFVQTHENPKGVWNCHADFGGHGTIWKLFLRFQQNLLGFLLPLLAMIFFYSRIGCVLVRLRPAGQGRALKIAAALVVAFFVLWFPYNLTLFLHTLLDLQVFGNCEVSQHLDYALQVTESIAFLHCCFSPILYAFSSHRFRQYLKAFLAAVLGWHLAPGTAQASLSSCSESSILTAQEEMTGMNDLGERQSENYPNKEDVGNKSA	
7.5 MFI	26 MFI	HA-ACKR2 (epitope-tagged human ACKR2, wild type), O00590 YYYDY to FFFDF (all four tyrosines of the motif to F) (protein) MAATASPQPLATEDADSENSSFFFFDFLDEVAFMLCRKDAVVSFGKVFLPVFYSLIFVLGLSGNLLLLMVLLRYVPRRRMVEIYLLNLAISNLLFLVTLPFWGISVAWHWVFGSFLCKMVSTLYTINFYSGIFFISCMSLDKYLEIVHAQPYHRLRTRAKSLLLATIVWAVSLAVSIPDMVFVQTHENPKGVWNCHADFGGHGTIWKLFLRFQQNLLGFLLPLLAMIFFYSRIGCVLVRLRPAGQGRALKIAAALVVAFFVLWFPYNLTLFLHTLLDLQVFGNCEVSQHLDYALQVTESIAFLHCCFSPILYAFSSHRFRQYLKAFLAAVLGWHLAPGTAQASLSSCSESSILTAQEEMTGMNDLGERQSENYPNKEDVGNKSA	response ([2]; chain shown with the change, 10 µg/ml Alexa-CCL2, parent: est. 28): 3 MFI; response ([2]; chain shown with the change, 20 µg/ml Alexa-CCL2, parent: est. 37): 3 MFI; response ([2]; chain shown with the change, 30 µg/ml Alexa-CCL2, parent: est. 54): 6 MFI
	180 MFI	HA-ACKR2 (epitope-tagged human ACKR2, wild type), O00590 YYYDY to FYYDY (first tyrosine of the motif to F) (protein) MAATASPQPLATEDADSENSSFFYYDYLDEVAFMLCRKDAVVSFGKVFLPVFYSLIFVLGLSGNLLLLMVLLRYVPRRRMVEIYLLNLAISNLLFLVTLPFWGISVAWHWVFGSFLCKMVSTLYTINFYSGIFFISCMSLDKYLEIVHAQPYHRLRTRAKSLLLATIVWAVSLAVSIPDMVFVQTHENPKGVWNCHADFGGHGTIWKLFLRFQQNLLGFLLPLLAMIFFYSRIGCVLVRLRPAGQGRALKIAAALVVAFFVLWFPYNLTLFLHTLLDLQVFGNCEVSQHLDYALQVTESIAFLHCCFSPILYAFSSHRFRQYLKAFLAAVLGWHLAPGTAQASLSSCSESSILTAQEEMTGMNDLGERQSENYPNKEDVGNKSA	
24 MFI		HA-ACKR2 (epitope-tagged human ACKR2, wild type), O00590 YYYDY to FFFDY (first, second and third tyrosines of the motif to F) (protein) MAATASPQPLATEDADSENSSFFFFDYLDEVAFMLCRKDAVVSFGKVFLPVFYSLIFVLGLSGNLLLLMVLLRYVPRRRMVEIYLLNLAISNLLFLVTLPFWGISVAWHWVFGSFLCKMVSTLYTINFYSGIFFISCMSLDKYLEIVHAQPYHRLRTRAKSLLLATIVWAVSLAVSIPDMVFVQTHENPKGVWNCHADFGGHGTIWKLFLRFQQNLLGFLLPLLAMIFFYSRIGCVLVRLRPAGQGRALKIAAALVVAFFVLWFPYNLTLFLHTLLDLQVFGNCEVSQHLDYALQVTESIAFLHCCFSPILYAFSSHRFRQYLKAFLAAVLGWHLAPGTAQASLSSCSESSILTAQEEMTGMNDLGERQSENYPNKEDVGNKSA	
